In PMC5593958, “Dissecting the link between the enzymatic activity and the SaPI inducing capacity of the phage 80α dUTPase” (Scientific Reports, 2017):
pKd: −log10 of the molar value.

What was measured:
Dut80α = target: T1, Dut80α (Dubowvirus dv80alpha, UniProt A4ZF98); test: thermal shift (Sypro Orange); assay type: binding; settings: 1 mM dUPNPP, 5 mM MgCl2, 10 μM protein, 75 mM HEPES pH 7.5, 250 mM NaCl; absolute Tm, not a shift; decimal comma as printed
T1 construct: pET28a, His-tagged, E. coli BL21 (DE3), HisTrap and size exclusion; homotrimer; last residues cited about 170
Source text: thermal shift (Sypro Orange) on Dut80α

[1] = tested on: O=c1ccn([C@H]2C[C@H](O)[C@@H](COP(=O)(O)OP(=O)(O)OP(=O)(O)O)O2)c(=O)[nH]1; test: malachite green phosphate assay; assay type: biochemical, Dubowvirus dv80alpha; settings: pH 7.5
Source text: malachite green phosphate assay on Dut80α

[2] = target: phage 80α dUTPase D95E mutant (Dut80α D95E) (Staphylococcus aureus phage 80α); test: BLI
[3] = target: phage 80α dUTPase D95E mutant (Dut80α D95E) (Staphylococcus aureus phage 80α); test: crystal structure

O=c1ccn([C@H]2C[C@H](O)[C@@H](COP(=O)(O)NP(=O)(O)OP(=O)(O)O)O2)c(=O)[nH]1 [dUPNPP, 2′-Deoxyuridine-5′-[(α,β)-imido]triphosphate]
Thermal Unfolding (°C) / +dUPNPP (Dut80α): 58 ± 0,09

(Dubowvirus dv80alpha)
Km [1]: 7.5 µM

Stl repressor from SaPIbov1 (natural protein)
pKd [2]: < 3.00

phage 80α dUTPase D95E mutant (Dut80α D95E) (enzyme)
stoichiometry N [3]: 3
